{
  "source": "paper doi:10.1101/2025.04.08.647717",
  "key": {"[1]": {"molecular_target": "EaeE37A (EaeSPARDA with E37A in the DREN domain of DREN-APAZ) (Enhydrobacter aerosaccus)", "test": "SEC-MALS"}, "[2]": {"molecular_target": "WT EaeSPARDA (binary DREN-APAZ:Ago monomer) (Enhydrobacter aerosaccus)", "test": "SEC-MALS"}, "[3]": {"molecular_target": "WT XauSPARDA (binary DREN-APAZ:Ago monomer) (Xanthobacter autotrophicus strain Py2)", "test": "SEC-MALS"}, "[4]": {"molecular_target": "XauDREN-APAZ protein (Xanthobacter autotrophicus strain Py2)", "test": "cryo-EM structure"}, "[5]": {"molecular_target": "XauE37A (XauSPARDA with E37A in the DREN domain of DREN-APAZ) (Xanthobacter autotrophicus strain Py2)", "test": "SEC-MALS"}, "[6]": {"molecular_target": "XauHSH (XauSPARDA whose XauAgo carries a 29 aa HSH-tag at the C-terminus) (Xanthobacter autotrophicus strain Py2)", "test": "SEC-MALS"}},
  "data": [
    {"substance": "EaeE37A (EaeSPARDA with E37A in the DREN domain of DREN-APAZ) (complex)", "values": [
      {"measurement": "stoichiometry N", "setting": "[1]", "value": 2}
    ]},
    {"substance": "WT EaeSPARDA (binary DREN-APAZ:Ago monomer) (complex)", "values": [
      {"measurement": "stoichiometry N", "setting": "[2]", "value": 2}
    ]},
    {"substance": "WT XauSPARDA (binary DREN-APAZ:Ago monomer) (complex)", "values": [
      {"measurement": "stoichiometry N", "setting": "[3]", "value": 2}
    ]},
    {"substance": "XauDREN-APAZ protein (natural protein)", "values": [
      {"measurement": "stoichiometry N", "setting": "[4]", "value": 4}
    ]},
    {"substance": "XauE37A (XauSPARDA with E37A in the DREN domain of DREN-APAZ) (complex)", "values": [
      {"measurement": "stoichiometry N", "setting": "[5]", "value": 2}
    ]},
    {"substance": "XauHSH (XauSPARDA whose XauAgo carries a 29 aa HSH-tag at the C-terminus) (complex)", "values": [
      {"measurement": "stoichiometry N", "setting": "[6]", "value": 2}
    ]}
  ]
}
